# Measured values published in US20240059764A1 (STARMAB BIOLOGICS SUZHOU, published 2024).
# B1: huF6-Fc fusion proteins binding with antigen (Fc fusion)
# chain: EVQLVESGGGLVQPGGSLRLSCAASGSTLDSYTVAWVRQAPGKGLEWVSCASRSGASTNYANSVKGRFTISRDNSKNTVYLQMNSLRAEDTAVYYCAAYRNFGNFCVMGRYEYDEWGQGTLVTVSSEPKSSDKTHTCPPCPAPELLGGPSVFLFPPKPKDTLYITREPEVTCVVVDVSHEDPEVKFNWYVDGVEVHNAKTKPREEQYNSTYRVVSVLTVLHQDWLNGKEYKCKVSNKALPAPIEKTISKAKGQPREPQVYTLPPSREEMTKNQVSLTCLVKGFYPSDIAVEWESNGQPENNYKTTPPVLDSDGSFFLYSKLTVDKSRWQQGNVFSCSVMHEALHNHYTQKSLSLSPGK
# B2: G1-Fc fusion proteins binding with antigen (Fc fusion)
# chain: QVQLVESGGDLVQPGGSLTLACEASGFTISSTGMTWVRQAPGKELDWVGDINIPGTDTDYDISVKGRFTISKDHAKNTVYLQMTSLRPEDTAIYYCAKQGANLRQGVQSPGTLVTVSSEPKSSDKTHTCPPCPAPELLGGPSVFLFPPKPKDTLYITREPEVTCVVVDVSHEDPEVKFNWYVDGVEVHNAKTKPREEQYNSTYRVVSVLTVLHQDWLNGKEYKCKVSNKALPAPIEKTISKAKGQPREPQVYTLPPSREEMTKNQVSLTCLVKGFYPSDIAVEWESNGQPENNYKTTPPVLDSDGSFFLYSKLTVDKSRWQQGNVFSCSVMHEALHNHYTQKSLSLSPGK
# B3: A3-Fc fusion proteins binding with antigen (Fc fusion)
# chain: QVQLVESGGGLVQAGGSLTLSCVASGFTFSRHGMTWVRQAPGKELDYVGEINIPGDDVDYDISVKGRFTISRDNAKNTVYLHMTNLKVEDTATYWCAQAGENMRLVTRRQGTQVTVSTEPKSSDKTHTCPPCPAPELLGGPSVFLFPPKPKDTLYITREPEVTCVVVDVSHEDPEVKFNWYVDGVEVHNAKTKPREEQYNSTYRVVSVLTVLHQDWLNGKEYKCKVSNKALPAPIEKTISKAKGQPREPQVYTLPPSREEMTKNQVSLTCLVKGFYPSDIAVEWESNGQPENNYKTTPPVLDSDGSFFLYSKLTVDKSRWQQGNVFSCSVMHEALHNHYTQKSLSLSPGK
# B4: huA3-Fc fusion proteins binding with antigen (Fc fusion)
# chain: QVQLVESGGGLVQPGGSLRLSCAASGFTFSRHGMTWVRQAPGKGLEYVGEINIPGDDVDYDISVKGRFTISRDNAKNTLYLQMNSLRAEDTAVYYCARAGENMRLVTRGQGTLVTVSSEPKSSDKTHTCPPCPAPELLGGPSVFLFPPKPKDTLYITREPEVTCVVVDVSHEDPEVKFNWYVDGVEVHNAKTKPREEQYNSTYRVVSVLTVLHQDWLNGKEYKCKVSNKALPAPIEKTISKAKGQPREPQVYTLPPSREEMTKNQVSLTCLVKGFYPSDIAVEWESNGQPENNYKTTPPVLDSDGSFFLYSKLTVDKSRWQQGNVFSCSVMHEALHNHYTQKSLSLSPGK
# B5: F6-Fc fusion proteins binding with antigen (Fc fusion)
# chain: QVQLVESGGGLAQPGGSLRLSCEASGSTLDSYTVAWFRQAPGKEREGVSCASRSGASTNYANSVKGRFTISRDNAKNTVYLQMNSLKPEDTGVYYCAAYRNFGNFCVMGRYEYDEWGQGTQVTVSSEPKSSDKTHTCPPCPAPELLGGPSVFLFPPKPKDTLYITREPEVTCVVVDVSHEDPEVKFNWYVDGVEVHNAKTKPREEQYNSTYRVVSVLTVLHQDWLNGKEYKCKVSNKALPAPIEKTISKAKGQPREPQVYTLPPSREEMTKNQVSLTCLVKGFYPSDIAVEWESNGQPENNYKTTPPVLDSDGSFFLYSKLTVDKSRWQQGNVFSCSVMHEALHNHYTQKSLSLSPGK
# B6: huG1-Fc fusion proteins binding with antigen (Fc fusion)
# chain: QVQLVESGGGLVQPGGSLRLSCAASGFTISSTGMTWVRQAPGKGLEWVGDINIPGTDTDYDISVKGRFTISKDHAKNTVYLQMNSLRAEDTAVYYCAKQGANLRQGVQGQGTLVTVSSEPKSSDKTHTCPPCPAPELLGGPSVFLFPPKPKDTLYITREPEVTCVVVDVSHEDPEVKFNWYVDGVEVHNAKTKPREEQYNSTYRVVSVLTVLHQDWLNGKEYKCKVSNKALPAPIEKTISKAKGQPREPQVYTLPPSREEMTKNQVSLTCLVKGFYPSDIAVEWESNGQPENNYKTTPPVLDSDGSFFLYSKLTVDKSRWQQGNVFSCSVMHEALHNHYTQKSLSLSPGK
# Biological target: Staphylococcus aureus alpha toxin (Staphylococcus aureus, UniProt P09616)
# Sequence (P09616 27-319 limits assumed): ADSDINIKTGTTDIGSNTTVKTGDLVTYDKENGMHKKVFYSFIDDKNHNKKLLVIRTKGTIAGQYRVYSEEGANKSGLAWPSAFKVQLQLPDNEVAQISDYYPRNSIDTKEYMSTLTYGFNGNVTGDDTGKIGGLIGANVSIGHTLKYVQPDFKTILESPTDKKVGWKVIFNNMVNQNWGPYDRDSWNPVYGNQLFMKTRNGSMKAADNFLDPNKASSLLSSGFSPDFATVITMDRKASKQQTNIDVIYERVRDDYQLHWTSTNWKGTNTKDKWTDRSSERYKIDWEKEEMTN
row,Binder,EC50
1,B1,2.72 ng/mL
2,B2,7 ng/mL
3,B3,9 ng/mL
4,B4,5.97 ng/mL
5,B5,3 ng/mL
6,B6,6.35 ng/mL
